In article doi:10.1101/2020.08.11.243964:

Molecular target: Human connexin 26 protein (hCx26) (human) (UniProt P29033)
Test: cryo-EM structure

- stoichiometry N: 12
Substance: Human connexin 26 protein (hCx26) (from UniProt P29033) (natural protein)
